# Source: US20160168210A1, “DERIVATIVES OF COLLAGEN-BINDING HAIRPIN PEPTIDES” (NATIONAL RESEARCH COUNCIL OF CANADA, priority 2012, published 2016)
# Entries after “also recorded” stand apart in the source; their conditions may differ. Where no end group is shown, it is not given here.
# What was measured:
# [1] = as reported previously (Blanco 1994; Cochran 2001b); cited from earlier work
# rat-tail collagen type I [2] = target: T1, rat-tail collagen type I (Rattus norvegicus, UniProt P02454+P02466); assay: Collagen binding/responsiveness of peptides by proton NMR and H-15N HSQC spectroscopy; design: rat-tail collagen type I (at 4 mg/ml in 0.02 N acetic acid); purchased BD Bioscience; host or cells: rat tail (tissue-derived); settings: for response to / binding of collagen (NMR spectral perturbations): peptide free in solution vs in the presence of collagen; for NMR perturbations after collagen gelation (polymerization); reversibility of collagen binding: before vs after collagen gelation
# Description: Rat collagen hydrogels were prepared using rat-tail collagen type I (at 4 mg/ml in 0.02 N acetic acid) from BD Bioscience. A volume of 200 μL of the concentrated collagen solution was mixed with an equal volume of a buffer solution that was 400 mM in Tris-HCl and 400 mM in NaCl with a pH of 7.6 and with 50 μL of deuterated water (D2O). The sample mixture was transferred to an NMR tube followed by gentle mixing under agitation using a Thermolyne™ Max Mix-II apparatus. The NMR tube containing the collagen solution was placed within the RF probe housed in a 500 MHz super-conducting magnet (Bruker Avance-500 NMR spectrometer). The probe and sample bulk temperature was kept at 277 K for 3 hours and then elevated to 310 K at a rate of 1 degree/10 min to enable fibril alignment during a slow process of collagen gelation under the influence of the magnetic field (Ma 2008). The degree of fibril alignment of the collagen hydrogels was determined by use of deuterium NMR spectroscopy of the added D2O as described (Ma 2008). […]
# Randomly-deposited collagen (hydrogel) matrix was prepared following the same procedure as above for partially aligned hydrogels, except that the RF probe and the NMR tube (or test tubes) containing the collagen solution were placed outside the magnetic field. Peptides containing collagen-binding hairpins were introduced into the hydrogels in two ways, the first with the collagen stock solution diluted (50:50 in volume ratio) by the buffer of 400 mM in Tris-HCl and 400 mM in NaCl at pH 7.6 containing the peptides of interest (i.e. for FIGS. 1A & 1D), which gelates in the presence of the added peptide. Alternatively, peptides in an appropriate buffer were introduced to the top of the hydrogel matrix (i.e. for FIGS. 1B & 1C) preformed in the NMR tube (or test tube) following the procedures described above. The behavior of the peptides in the hydrogels was followed by use of NMR H-^15N HSQC spectra for ^15N-labelled peptides (FIG. 1) and/or by use of one-dimensional proton NMR spectroscopy (FIG. 2).
# (§1) Deuterium NMR spectroscopy studies of collagen responsiveness (and/or binding) for each peptide were carried out using a volume of (400-X) μL of a peptide dissolved in pure water mixed with 50 μL of a 10×PBS (phosphate-buffered saline) supplemented by sodium phosphate to a final concentration of 50 mM, with 50 μL of deuterated water (D2O) to form the reference sample (where X=0), or the peptide-collagen complex with X μL of rat-tail collagen type I (at 3.6 to 4 mg/ml in 0.02 N acetic acid from BD Bioscience) adjusted to achieve the desired final concentration of collagen. The pH value of the reference peptide samples was adjusted to match the pH of the final peptide-collagen complex in order to facilitate NMR spectral comparison. The peptide-collagen solutions were also subjected to gelation under magnetic field guidance followed by the measurement of fibril alignment (Ma 2008) as a semi-quantitative indication of peptide-collagen binding. Deuterium coupling constants measuring the degree of collagen fibril alignment were reduced by more than 1.0 Hz for MH2-wZIP4, by less than 0.5 Hz for MH2-wZIP6 and MH2-wZIP5, which parallel those observed for trpzip4, trpzip6, trpzip5 and the gb1 peptide (see Example 4). As a comparison, a solution of rat collagen at a concentration of 1.8 mg/ml in 200 mM Tris-Cl/200 mM NaCl at pH 7.6 formed a partially-aligned hydrogel with a deuterium coupling constant (Ma, 2008) of 2.5 Hz, while a solution of rat collagen at a concentration of 3 mg/ml in PBS (137 mM NaCl/2.68 mM KCl/10.1 mM Na2HPO4/1.76 mM KH2PO4) supplemented with Na2HPO4 to achieve a final concentration of 50 mM at pH 7.4 formed a partially-aligned hydrogel with a deuterium coupling constant of 4.8 Hz. A solution of human collagen at a concentration of 2.23 mg/ml in PBS supplemented with Na2HPO4 with a final concentration of 50 mM at pH 7.4 formed a partially-aligned hydrogel with a deuterium coupling constant of 1.3 Hz.
# rat-tail collagen type I [3] = target: T1, rat-tail collagen type I; assay: Collagen fibril alignment of hydrogels formed from peptide-collagen solutions, deuterium NMR (deuterium coupling constant); type: binding; design: rat-tail collagen type I (at 4 mg/ml in 0.02 N acetic acid); purchased BD Bioscience; host or cells: rat tail (tissue-derived)
# Description: Rat collagen hydrogels were prepared using rat-tail collagen type I (at 4 mg/ml in 0.02 N acetic acid) from BD Bioscience. A volume of 200 μL of the concentrated collagen solution was mixed with an equal volume of a buffer solution that was 400 mM in Tris-HCl and 400 mM in NaCl with a pH of 7.6 and with 50 μL of deuterated water (D2O). The sample mixture was transferred to an NMR tube followed by gentle mixing under agitation using a Thermolyne™ Max Mix-II apparatus. The NMR tube containing the collagen solution was placed within the RF probe housed in a 500 MHz super-conducting magnet (Bruker Avance-500 NMR spectrometer). The probe and sample bulk temperature was kept at 277 K for 3 hours and then elevated to 310 K at a rate of 1 degree/10 min to enable fibril alignment during a slow process of collagen gelation under the influence of the magnetic field (Ma 2008). The degree of fibril alignment of the collagen hydrogels was determined by use of deuterium NMR spectroscopy of the added D2O as described (Ma 2008).
# as §1, with “A solution of human collagen at a concentration of 2.23 mg/ml in PBS supplemented with Na2HPO4 with a final concentration of 50 mM at pH 7.4 formed a partially-aligned hydrogel with a deuterium coupling constant of 1.3 Hz.” left out
# rat-tail collagen type I [4] = target: T2, rat-tail collagen type I (rat, UniProt P02454 152-1207; P02466 86-1125); assay: NMR spectroscopy (Table 4 footnote)
# T2 construct: also called type-I collagen; unpolymerized collagen
# rat-tail collagen type I [5] = target: T2, rat-tail collagen type I; assay: cell-based or functional assay
# T2 sequence (P02454 152-1207 limits assumed, chain 1 of 2): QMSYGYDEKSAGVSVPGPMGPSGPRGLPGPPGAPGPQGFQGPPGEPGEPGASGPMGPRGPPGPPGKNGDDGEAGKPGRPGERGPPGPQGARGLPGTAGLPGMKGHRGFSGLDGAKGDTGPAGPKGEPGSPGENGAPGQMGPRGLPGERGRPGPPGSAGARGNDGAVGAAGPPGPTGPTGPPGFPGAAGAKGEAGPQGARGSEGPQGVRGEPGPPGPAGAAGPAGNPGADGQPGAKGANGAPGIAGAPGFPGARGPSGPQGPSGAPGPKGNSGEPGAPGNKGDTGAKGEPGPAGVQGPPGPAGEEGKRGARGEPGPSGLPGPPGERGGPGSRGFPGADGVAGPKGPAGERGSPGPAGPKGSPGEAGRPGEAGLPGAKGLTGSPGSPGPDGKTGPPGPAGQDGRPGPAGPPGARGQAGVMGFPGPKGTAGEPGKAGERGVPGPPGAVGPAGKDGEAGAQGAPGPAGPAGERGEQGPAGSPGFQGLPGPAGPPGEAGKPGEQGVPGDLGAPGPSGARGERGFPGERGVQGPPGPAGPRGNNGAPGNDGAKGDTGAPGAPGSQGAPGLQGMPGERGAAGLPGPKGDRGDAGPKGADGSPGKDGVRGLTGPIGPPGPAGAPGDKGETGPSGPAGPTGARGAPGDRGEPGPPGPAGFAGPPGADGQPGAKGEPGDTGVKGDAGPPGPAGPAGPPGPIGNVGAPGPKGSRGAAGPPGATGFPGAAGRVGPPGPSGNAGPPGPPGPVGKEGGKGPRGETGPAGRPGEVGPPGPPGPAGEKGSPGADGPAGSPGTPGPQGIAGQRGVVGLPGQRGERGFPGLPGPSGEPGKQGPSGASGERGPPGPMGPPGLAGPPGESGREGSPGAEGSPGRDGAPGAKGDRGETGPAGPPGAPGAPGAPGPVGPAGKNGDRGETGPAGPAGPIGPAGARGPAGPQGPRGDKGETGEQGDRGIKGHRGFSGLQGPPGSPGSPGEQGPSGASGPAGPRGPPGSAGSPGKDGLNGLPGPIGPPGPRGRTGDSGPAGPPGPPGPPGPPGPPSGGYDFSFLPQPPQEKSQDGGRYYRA
# T2 sequence (P02466 86-1125 limits assumed, chain 2 of 2): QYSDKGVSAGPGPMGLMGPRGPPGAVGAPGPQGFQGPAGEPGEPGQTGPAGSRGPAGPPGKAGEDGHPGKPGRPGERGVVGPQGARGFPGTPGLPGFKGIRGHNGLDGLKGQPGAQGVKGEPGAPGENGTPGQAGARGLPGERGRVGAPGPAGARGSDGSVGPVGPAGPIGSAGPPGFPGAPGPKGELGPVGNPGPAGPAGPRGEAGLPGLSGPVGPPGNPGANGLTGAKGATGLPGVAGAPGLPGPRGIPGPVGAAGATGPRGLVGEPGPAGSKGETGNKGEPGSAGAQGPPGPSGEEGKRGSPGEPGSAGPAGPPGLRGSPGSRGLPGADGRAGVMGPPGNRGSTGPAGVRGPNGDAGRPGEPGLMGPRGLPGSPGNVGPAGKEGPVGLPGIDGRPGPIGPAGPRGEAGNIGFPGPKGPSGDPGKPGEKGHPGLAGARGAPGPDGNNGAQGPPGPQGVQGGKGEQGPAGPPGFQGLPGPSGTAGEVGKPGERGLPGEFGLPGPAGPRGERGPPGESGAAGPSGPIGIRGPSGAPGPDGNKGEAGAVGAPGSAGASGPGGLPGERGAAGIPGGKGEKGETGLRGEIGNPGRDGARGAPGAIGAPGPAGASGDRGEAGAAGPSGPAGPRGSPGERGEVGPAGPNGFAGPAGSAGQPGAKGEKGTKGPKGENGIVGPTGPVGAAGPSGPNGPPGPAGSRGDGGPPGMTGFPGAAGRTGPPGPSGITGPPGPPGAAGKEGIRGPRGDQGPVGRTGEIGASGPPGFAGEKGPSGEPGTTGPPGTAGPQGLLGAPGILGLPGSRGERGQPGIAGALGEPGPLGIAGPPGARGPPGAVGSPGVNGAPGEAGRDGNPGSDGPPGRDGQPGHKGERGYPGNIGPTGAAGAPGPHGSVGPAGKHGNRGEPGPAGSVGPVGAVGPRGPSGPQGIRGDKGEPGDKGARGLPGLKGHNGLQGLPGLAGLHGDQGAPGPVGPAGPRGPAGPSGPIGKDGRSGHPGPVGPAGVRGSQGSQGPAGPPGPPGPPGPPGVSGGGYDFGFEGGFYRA
# T1 sequence (P02454 152-1207 limits assumed): as the sequence (P02454 152-1207 limits assumed, chain 1 of 2) above
# T1 sequence (P02466 86-1125 limits assumed): as the sequence (P02466 86-1125 limits assumed, chain 2 of 2) above
molecule,measurement,setting,value
"GEWTWDDATKTWTWTE (GEWTWDDATKTWTWTE-NH2) [trpzip4, reference compound]",Tm,[1],about 70 °C
same,response to / binding of collagen (NMR spectral perturbations),rat-tail collagen type I [2],responded to collagen; also recorded: most pronounced changes in response to the presence of collagen; also recorded: dramatically altered by collagen
same,effect on collagen gelation and degree of collagen alignment,rat-tail collagen type I [3],significantly reduced degree of collagen alignment
"GEWTYDDATKTFTWTE (GEWTYDDATKTFTWTE-NH2) [trpzip5, reference compound]",Tm,[1],about 43 °C
same,NMR perturbations after collagen gelation (polymerization); reversibility of collagen binding,rat-tail collagen type I [2],revert toward those of the free peptides after collagen polymerization; also recorded: reverts to a greater extent as compared to trpzip6
same,response to / binding of collagen (NMR spectral perturbations),rat-tail collagen type I [2],responded to collagen; also recorded: respond to the presence of collagen
GEWTYDDATKTFTVTE (gb1 - does not bind collagen) [reference compound],Tm,[1],about 7 °C
same,response to / binding of collagen (NMR spectral perturbations),rat-tail collagen type I [2],no response to collagen; also recorded: little binding capacity; also recorded: does not bind collagen
same,effect on collagen gelation and degree of collagen alignment,rat-tail collagen type I [3],remained similar with or without the peptide
IRFDTGEWTWDDATKTWTWTEGDFEEIPEEYLQ (MH2-wZIP4 - molecule of Formula (I)),NMR perturbations after collagen gelation (polymerization); reversibility of collagen binding,rat-tail collagen type I [2],no dramatic impact on resonance perturbations
same,NMR perturbations / release after collagen degradation by a collagenase,rat-tail collagen type I [2]; collagenase treatment,releasable by the collagenase; also recorded: highly sensitive to the treatment of a collagenase
same,entrapment in collagen hydrogel,rat-tail collagen type I [2]; diffused into pre-aligned collagen hydrogels,greatly-reduced entrapment
same,response to / binding of collagen (NMR spectral perturbations),rat-tail collagen type I [2],most pronounced proton NMR spectral changes; also recorded: highest capacity of binding unpolymerized soluble collagen
same,effect on collagen gelation and degree of collagen alignment,rat-tail collagen type I [3],most pronounced interference with hydrogel formation by collagen
same,reduction of deuterium coupling constant measuring the degree of collagen fibril alignment,rat-tail collagen type I [3]; gelation under magnetic field guidance,more than 1.0 Hz
"GEWTWDDATKTWTVTE (GEWTWDDATKTWTVTE-NH2) [trpzip6, reference compound]",Tm,[1],about 45 °C
same,NMR perturbations after collagen gelation (polymerization); reversibility of collagen binding,rat-tail collagen type I [2],revert toward those of the free peptides after collagen polymerization
same,response to / binding of collagen (NMR spectral perturbations),rat-tail collagen type I [2],responded to collagen; also recorded: respond to the presence of collagen
SVTWENGKWTVK [W4W9-trpzip2],binding result,rat-tail collagen type I [4],no binding
SYTWEGNKWTYK [Y2Y11-trpzip1],binding result,rat-tail collagen type I [4],no binding
SYTWENGKWTYK [YWWY-trpzip2],binding result,rat-tail collagen type I [4],no binding
IRFTDGEWTWDDATKTWTWTEGDFEEIPEEYLQ [MH2-wZIP4],reduction of the deuterium coupling constant measuring the degree of collagen fibril alignment,rat-tail collagen type I [5],> 1 Hz
GEWTYDDATKTFTWTE [MH2-wZIP5],reduction of the deuterium coupling constant measuring the degree of collagen fibril alignment,rat-tail collagen type I [5],< 0.5 Hz
GEWTWDDATKTWTVTE [MH2-wZIP6],reduction of the deuterium coupling constant measuring the degree of collagen fibril alignment,rat-tail collagen type I [5],< 0.5 Hz
